Residue numbers refer to the chain shown, from its start. Values belong to the molecule of their own block, whether it stands above or below them.
How the values were obtained:
[1] = target: T1, Aurora B (Homo sapiens, UniProt Q96GD4); experiment: In vitro kinase assay with recombinant INCENP, Aurora B and HP1; assay type: biochemical; settings: for activation of Aurora B: recombinant proteins, 1 μM HP1
Protocol: The kinase assay was carried out by adding a substrate in a kinase buffer (20 mM Tris-HCl, 50 mM MgCl2, 100 mM NaCl, 20 μM ATP, pH7.5) and 0.2 mCi/ml[γ^− ^32P]ATP. As the substrate, GST-Hec1 (1-80) or recombinant histones H3 (manufactured by New England Biolas) was used. Twenty nM INCENP and 120 nM GST-Aurora B were reacted in the presence or absence of 1 μM HP1 at 30° C. for 20 minutes and the reaction was terminated by Laemmli sample buffer. Phosphorylation was analyzed by Typhoon scanner (manufactured by GE Healthcare) and a liquid scintillation counter.
Using recombinant proteins of INCENP, Aurora B and HP1α, in vitro kinase assay was carried out (FIG. 6C). […] Accordingly, it was shown that physical binding of HP1 to INCENP is required for activation of Aurora B, and that HP1 has an allosteric effect on Aurora B.
Then, enzyme kinetics analysis of Aurora B was carried out. […] Further, analysis of proteins binding to GST-Aurora B was carried out by the GST pull down assay. As a result, the amount of Hec1 binding to GST-Aurora B increased in the conditions where HP1 can bind to INCENP. […] Accordingly, binding of HP1α to INCENP is required for activating Aurora B.
Target sequence in this assay (Q96GD4 whole entry): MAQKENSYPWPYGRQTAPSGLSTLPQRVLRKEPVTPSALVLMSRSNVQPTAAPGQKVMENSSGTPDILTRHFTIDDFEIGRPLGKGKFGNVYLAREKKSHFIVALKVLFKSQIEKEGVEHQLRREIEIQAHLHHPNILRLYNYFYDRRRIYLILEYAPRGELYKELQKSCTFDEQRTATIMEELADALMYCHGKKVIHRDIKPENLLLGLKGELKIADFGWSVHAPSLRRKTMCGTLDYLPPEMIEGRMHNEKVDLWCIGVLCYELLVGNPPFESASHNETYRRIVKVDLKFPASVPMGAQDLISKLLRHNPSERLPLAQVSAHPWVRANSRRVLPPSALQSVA
Target sequence in this assay (Q9NQS7 whole entry partner): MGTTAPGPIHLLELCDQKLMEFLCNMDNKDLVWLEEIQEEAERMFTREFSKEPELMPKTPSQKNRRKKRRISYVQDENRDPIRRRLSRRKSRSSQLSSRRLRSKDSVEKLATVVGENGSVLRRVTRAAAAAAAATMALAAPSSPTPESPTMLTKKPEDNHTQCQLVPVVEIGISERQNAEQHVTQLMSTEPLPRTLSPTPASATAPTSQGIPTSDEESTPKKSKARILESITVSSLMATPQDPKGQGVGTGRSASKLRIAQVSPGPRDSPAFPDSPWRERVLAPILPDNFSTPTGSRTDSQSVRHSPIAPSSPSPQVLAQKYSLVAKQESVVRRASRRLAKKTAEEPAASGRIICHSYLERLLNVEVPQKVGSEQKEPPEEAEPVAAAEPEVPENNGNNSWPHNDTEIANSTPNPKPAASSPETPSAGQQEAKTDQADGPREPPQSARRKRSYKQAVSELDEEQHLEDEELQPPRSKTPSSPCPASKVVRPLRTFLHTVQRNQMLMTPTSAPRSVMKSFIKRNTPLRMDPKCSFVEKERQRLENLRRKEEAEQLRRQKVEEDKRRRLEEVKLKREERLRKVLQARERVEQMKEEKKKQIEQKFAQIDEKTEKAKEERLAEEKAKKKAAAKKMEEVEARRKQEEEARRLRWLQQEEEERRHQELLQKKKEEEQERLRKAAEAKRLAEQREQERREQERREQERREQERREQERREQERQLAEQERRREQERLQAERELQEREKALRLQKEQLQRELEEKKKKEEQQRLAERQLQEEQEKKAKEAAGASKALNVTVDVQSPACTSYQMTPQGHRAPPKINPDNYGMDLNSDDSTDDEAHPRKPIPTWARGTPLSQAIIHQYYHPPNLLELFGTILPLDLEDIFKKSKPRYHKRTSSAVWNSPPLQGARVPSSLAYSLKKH

[2] = target: T1, Aurora B; experiment: Immunostaining of metaphase cells with anti-HP1α-pS92 antibody; assay type: cell-based; parameters: endogenous in cells; settings: FIG. 5D
Protocol: (§1) Cells were cultured on a cover glass and immobilized with 4% paraformaldehyde in PHEM buffer solution (60 mM PIPES, 25 mM HEPES, 10 mM EGTA, 2 mM MgCl2, pH7.0) or PBS, at room temperature. Cells were treated with the above buffer solution containing 0.2 to 1.0% Triton X-100, and blocked with a 3% BSA-containing buffer. Images were obtained by AxiolmagerM1 miacroscope (manufactured by Zeiss) equipped with CoolSNAP HQ camera (manufactured by Photometrics) operated by MetaMorph software (manufactured by MDS Analytical Technologies). The intensity of fluorescence was analyzed by ImageJ software (National Institute of Health).
It was shown that the anti-HP1α-pS92 antibody sensitively detects phosphorylated HP1α even if it is used in immunostaining (FIGS. 5D, E). Cells of the interphase, cells of the metaphase, cells of the metaphase where the expression of HP1α was depleted by siRNA and cells of the metaphase where the activity of Aurora B was suppressed by ZM447439 were immunostained with an anti-HP1α-pS92 antibody (FIG. 5D). Only the metaphase cells used as the control were stained. In the interphase cells, cells where the expression of HP1α was depleted and cells where the activity of Aurora B was suppressed, phosphorylated HP1α was not detected.
Target sequence in this assay (Q96GD4 whole entry): as the sequence (Q96GD4 whole entry) above
Target sequence in this assay (Q9NQS7 whole entry partner): as the sequence (Q9NQS7 whole entry partner) above
Target sequence in this assay (O15392 whole entry partner): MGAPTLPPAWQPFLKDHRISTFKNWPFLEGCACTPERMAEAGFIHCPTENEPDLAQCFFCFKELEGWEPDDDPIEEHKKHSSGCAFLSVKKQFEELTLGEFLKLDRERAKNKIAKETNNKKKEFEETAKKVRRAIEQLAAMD
Target sequence in this assay (Q53HL2 whole entry partner): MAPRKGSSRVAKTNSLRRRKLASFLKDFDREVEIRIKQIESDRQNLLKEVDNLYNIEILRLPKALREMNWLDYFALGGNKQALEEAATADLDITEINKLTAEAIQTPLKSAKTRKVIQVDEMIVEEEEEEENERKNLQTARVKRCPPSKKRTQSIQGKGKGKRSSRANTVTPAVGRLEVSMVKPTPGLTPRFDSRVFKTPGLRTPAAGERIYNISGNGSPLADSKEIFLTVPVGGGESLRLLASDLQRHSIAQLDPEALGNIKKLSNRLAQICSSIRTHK

[3] = target: T1, Aurora B; experiment: Phosphorylation of Aurora B substrates in HeLa cells, fluorescence microscopy with phospho-specific antibodies; assay type: cell-based; parameters: endogenous in cells; host or cells: HeLa
Protocol: as §1
Target sequence in this assay (Q96GD4 whole entry): as the sequence (Q96GD4 whole entry) above
Target sequence in this assay (Q9NQS7 whole entry partner): as the sequence (Q9NQS7 whole entry partner) above
Target sequence in this assay (O15392 whole entry partner): as the sequence (O15392 whole entry partner) above
Target sequence in this assay (Q53HL2 whole entry partner): as the sequence (Q53HL2 whole entry partner) above
Next, activation of Aurora B was analyzed based on degree of phosphorylation of a substrate. HeLa cells were transfected with siRNA of all subtypes of HP1 to inhibit expression of all HP1 subtypes. […] The cells were immobilized and then analyzed by a fluorescence microscope using an antibody recognizing phosphorylation of serine at position 10 of histone H3 (H3-pS10, 6G3, manufactured by Cell Signaling Technology) (FIG. 4B); an antibody recognizing phosphorylation of serine at position 44 of Hec1 (Hec1-pS44, Non Patent Literature 8); an Hec1 antibody (9G3.23, manufactured by Novus Biologicals) (FIG. 4C); and an antibody recognizing phosphorylation of serine at position 100 of Dsn1 (Dsn-pS100, Non Patent Literature 9) (FIG. 4D).

[4] = target: T1, Aurora B; experiment: Kinase activity of fractions immunoprecipitated with anti-HP1α-pS92 antibody or INCENP antibody; assay type: biochemical; parameters: endogenous in cells; settings: addition of inhibitor
Protocol: The cells in the mitotic phase were incubated in a solution, which was prepared by adding 1 U/μl OmniCleave Endonuclease (manufactured by Epicentre) in the above immunoprecipitation buffer, at 4° C. for 30 minutes. The solution was centrifuged at 4° C. and 15,000 rpm for 10 minutes and the supernatant was further centrifuged. The resultant supernatant was used for immunoprecipitation. Protein A-Sepharose (manufactured by Bio-Rad) having an antibody bound thereto, was allowed to react with cell extracts and subjected to immunoprecipitation. The sample obtained by immunoprecipitation was subjected to the immunoblotting using peroxidase-labeled Mouse TrueBlot ULTRA or Rabbit TrueBlot (manufactured by eBioscience) as a secondary antibody.
The kinase assay was carried out by adding a substrate in a kinase buffer (20 mM Tris-HCl, 50 mM MgCl2, 100 mM NaCl, 20 μM ATP, pH7.5) and 0.2 mCi/ml[γ^− ^32P]ATP. […] Phosphorylation was analyzed by Typhoon scanner (manufactured by GE Healthcare) and a liquid scintillation counter.
Next, we will describe that the binding of HP1 to CPC is necessary for activating Aurora B. Immunoprecipitation was carried out with anti-HP1α-pS92 antibody and INCENP antibody and proteins constituting CPC and subtypes of HP1 were analyzed by immunoblotting (FIG. 5H, left panel). […]
Target sequence in this assay (Q96GD4 whole entry): as the sequence (Q96GD4 whole entry) above
Target sequence in this assay (Q9NQS7 whole entry partner): as the sequence (Q9NQS7 whole entry partner) above
Target sequence in this assay (O15392 whole entry partner): as the sequence (O15392 whole entry partner) above
Target sequence in this assay (Q53HL2 whole entry partner): as the sequence (Q53HL2 whole entry partner) above

[5] = target: T2, HP1α (Homo sapiens, UniProt P45973); experiment: Binding assay of INCENP (positions 121 to 270) and HP1α by isothermal titration calorimetry
T2 construct: His tag or GST tag
T2 sequence (P45973 whole entry): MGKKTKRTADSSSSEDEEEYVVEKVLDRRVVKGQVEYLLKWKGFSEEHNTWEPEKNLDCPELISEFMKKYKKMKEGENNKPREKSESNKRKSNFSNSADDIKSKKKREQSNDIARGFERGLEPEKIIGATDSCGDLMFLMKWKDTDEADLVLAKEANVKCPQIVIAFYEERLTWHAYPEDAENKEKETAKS
Protocol: Wild type HP1α and a region at positions 121 to 270 in INCENP (SEQ ID NO: 8, INCENP WT) were used in the binding assay. The region at positions 121 to 270 in INCENP contains an important motif […], required for binding to HP1. A mutant (SEQ ID NO: 9, INCENP 3A) was obtained by substituting three amino acids in this region with alanine residues and used as a control. A dissociation constant thereof was determined by isothermal titration calorimetry. As an isothermal titration calorimetry apparatus, any device may be used. For example, using MicroCal iTC2000 system (manufactured by GE healthcare biosciences), measurement may be carried out, in accordance with a conventional method.
The above peptides, to which His tag or GST tag was attached, were subjected to isothermal titration calorimetry to determine a dissociation constant. Note that, the dissociation constant was computationally obtained based on average values of 5 experiments.

reaction rate of substrate phosphorylation by Aurora B per unit time ([1]; enzyme kinetics analysis, FIG. 6G): significantly increases
activation of Aurora B [1]: highly activate
Molecule: HP1α: recombinant heterochromatin protein 1 subtype α

binding to HP1 [5]: does not bind to HP1
B1: INCENP 3A: mutant (SEQ ID NO: 9) obtained by substituting three amino acids of the P×V×I motif with alanine residues (protein)
chain: LRRVTRAAAAAAAATMALAAPSSPTPESPTMLTKKPEDNHTQCQLVAVAEAGISERQNAEQHVTQLMSTEPLPRTLSPTPASATAPTSQGIPTSDEESTPKKSKARILESITVSSLMATPQDPKGQGVGTGRSASKLRIAQVSPGPRDSP
modifications: HP1 binding site mutant

More lines, now with the values behind:

Molecule: HP1β: heterochromatin protein 1 subtype β
activation of Aurora B [1]: highly activate

Molecule: COc1cc2c(Nc3ccc(NC(=O)c4ccccc4)cc3)ncnc2cc1OCCCN1CCOCC1 [ZM447439]
phosphorylated HP1α detected by immunostaining [2]: not detected
Phosphorylation by Aurora B of substrates (H3, Hec1, Dsn1) ([3]; FIGS. 4B to 4D legend): suppressed
effect on phosphorylation of Hec1 and Dsn1 ([3]; HeLa cells, low concentration (0.4 μM)): suppressive effect equal to the effect produced by depletion of HP1
kinase activities of the fractions obtained by immunoprecipitation with the anti-HP1α-pS92 antibody and the INCENP antibody [4]: inhibited

Molecule: HP1 mutant I165E: HP1 mutant which cannot form a dimer, cannot bind to INCENP
activation of Aurora B [1]: does not activate

Molecule: HP1γ: heterochromatin protein 1 subtype γ
activation of Aurora B [1]: highly activate

B2: INCENP WT: region at positions 121 to 270 in INCENP (SEQ ID NO: 8), with His tag or GST tag (protein, listed as Homo sapiens)
chain: B1 chain with A47P, A49V, A51I
modifications: His tag or GST tag
Binding ([5]; binding to wild type HP1α, isothermal titration calorimetry, His tag or GST tag peptides): ◯
